In IntAct's records for PubMed 11238952:

B1: Cyclic AMP-dependent transcription factor ATF-4 (Homo sapiens), P18848 (parent)
chain: MTEMSFLSSEVLVGDLMSPFDQSGLGAEESLGLLDDYLEVAKHFKPHGFSSDKAKAGSSEWLAVDGLVSPSNNSKEDAFSGTDWMLEKMDLKEFDLDALLGIDDLETMPDDLLTTLDDTCDLFAPLVQETNKQPPQTVNPIGHLPESLTKPDQVAPFTFLQPLPLSPGVLSSTPDHSFSLELGSEVDITEGDRKPDYTAYVAMIPQCIKEEDTPSDNDSGICMSPESYLGSPQHSPSTRGSPNRSLPSPGVLCGSARPKPYDPPGEKMVAAKVKGEKLDKKLKKMEQNKTAATRYRQKKRAEQEALTGECKELEKKNEALKERADSLAKEIQYLKDLIEEVRKARGKKRVP

Variants of: B1
Conditions: with BTRC

effect of a mutation on the interaction | Variant
decreasing interaction | MTEMSFLSSEVLVGDLMSPFDQSGLGAEESLGLLDDYLEVAKHFKPHGFSSDKAKAGSSEWLAVDGLVSPSNNSKEDAFSGTDWMLEKMDLKEFDLDALLGIDDLETMPDDLLTTLDDTCDLFAPLVQETNKQPPQTVNPIGHLPESLTKPDQVAPFTFLQPLPLSPGVLSSTPDHSFSLELGSEVDITEGDRKPDYTAYVAMIPQCIKEEDTPSDNDNGICMSPESYLGSPQHSPSTRGSPNRSLPSPGVLCGSARPKPYDPPGEKMVAAKVKGEKLDKKLKKMEQNKTAATRYRQKKRAEQEALTGECKELEKKNEALKERADSLAKEIQYLKDLIEEVRKARGKKRVP [S219N]
decreasing interaction | MTEMSFLSSEVLVGDLMSPFDQSGLGAEESLGLLDDYLEVAKHFKPHGFSSDKAKAGSSEWLAVDGLVSPSNNSKEDAFSGTDWMLEKMDLKEFDLDALLGIDDLETMPDDLLTTLDDTCDLFAPLVQETNKQPPQTVNPIGHLPESLTKPDQVAPFTFLQPLPLSPGVLSSTPDHSFSLELGSEVDITEGDRKPDYTAYVAMIPQCIKEEDTPSDNNSGICMSPESYLGSPQHSPSTRGSPNRSLPSPGVLCGSARPKPYDPPGEKMVAAKVKGEKLDKKLKKMEQNKTAATRYRQKKRAEQEALTGECKELEKKNEALKERADSLAKEIQYLKDLIEEVRKARGKKRVP [D218N]

Variants of: B1
Conditions: with BTRC
Remark: another data set of the same source

effect of a mutation on the interaction | Variant
disrupting interaction | MTEMSFLSSEVLVGDLMSPFDQSGLGAEESLGLLDDYLEVAKHFKPHGFSSDKAKAGSSEWLAVDGLVSPSNNSKEDAFSGTDWMLEKMDLKEFDLDALLGIDDLETMPDDLLTTLDDTCDLFAPLVQETNKQPPQTVNPIGHLPESLTKPDQVAPFTFLQPLPLSPGVLSSTPDHSFSLELGSEVDITEGDRKPDYTAYVAMIPQCIKEEDTPSDNDNGICMSPESYLGSPQHSPSTRGSPNRSLPSPGVLCGSARPKPYDPPGEKMVAAKVKGEKLDKKLKKMEQNKTAATRYRQKKRAEQEALTGECKELEKKNEALKERADSLAKEIQYLKDLIEEVRKARGKKRVP [S219N]
